B1: QhpG from Pseudomonas putida IFO 15366 (wild-type) (enzyme)
chain: MAEPRIVVLGAGPAGAATAIGLRRLGYAVTVVSEWRRFAAVEGVSQRVLEGLRHVGLGGALRQAAMPATRQVHWNGQQLHLNQEFLLDRQRFDRALRDDLQRAGVSVVEGRVREVVRDVGHGIRLDDGQVLQADFLVEARGRQAPLAADRLRGPETVSLLNVWQAAPGAPASAVESLADGWAWMARLEDGRCYWQVTLDAAGLPGKAGLADYCAARRADSALVTELFDARALASAEVHARSSTAILAGECVGQDWIRVGDAAMAVDPLSGNGIFQSLSSALQAPVVINTLLRRPERAGLARQFHQQRIEQLFLRFARIGRDFYGQEQGRVGQPFWARRQGWPDMQALHVAADWSAVRVERRPVLRDGLVDEAEVVVTADQPLGVWHLQGVELAPAVRELQAGRPLEAVVSGLSGEQQRMVRRWLLEQGLV
notes: Monomer by gel filtration; From the His6-TEV oligonucleotide, a few residues (G, H) may remain before Met1 after TEV cleavage; this is surmised; also called PpQhpG; peptidyl tryptophan dihydroxylase; source: E. coli C41 (DE3), purified (Ni-Sepharose FF, HisTrap HP; His6-tag removed with TEV protease, second HisTrap HP); not shown: His6, N-terminal, cleaved
B2: QhpG E42A mutant (Pseudomonas putida) (enzyme)
chain: MAEPRIVVLGAGPAGAATAIGLRRLGYAVTVVSEWRRFAAVAGVSQRVLEGLRHVGLGGALRQAAMPATRQVHWNGQQLHLNQEFLLDRQRFDRALRDDLQRAGVSVVEGRVREVVRDVGHGIRLDDGQVLQADFLVEARGRQAPLAADRLRGPETVSLLNVWQAAPGAPASAVESLADGWAWMARLEDGRCYWQVTLDAAGLPGKAGLADYCAARRADSALVTELFDARALASAEVHARSSTAILAGECVGQDWIRVGDAAMAVDPLSGNGIFQSLSSALQAPVVINTLLRRPERAGLARQFHQQRIEQLFLRFARIGRDFYGQEQGRVGQPFWARRQGWPDMQALHVAADWSAVRVERRPVLRDGLVDEAEVVVTADQPLGVWHLQGVELAPAVRELQAGRPLEAVVSGLSGEQQRMVRRWLLEQGLV
notes: E42A is still to be applied; source: E. coli C41 (DE3), purified (Ni-Sepharose FF, HisTrap HP; His6-tag removed with TEV protease, second HisTrap HP); not shown: His6, N-terminal, cleaved
B3: QhpG R47A mutant (Pseudomonas putida) (enzyme)
chain: MAEPRIVVLGAGPAGAATAIGLRRLGYAVTVVSEWRRFAAVEGVSQAVLEGLRHVGLGGALRQAAMPATRQVHWNGQQLHLNQEFLLDRQRFDRALRDDLQRAGVSVVEGRVREVVRDVGHGIRLDDGQVLQADFLVEARGRQAPLAADRLRGPETVSLLNVWQAAPGAPASAVESLADGWAWMARLEDGRCYWQVTLDAAGLPGKAGLADYCAARRADSALVTELFDARALASAEVHARSSTAILAGECVGQDWIRVGDAAMAVDPLSGNGIFQSLSSALQAPVVINTLLRRPERAGLARQFHQQRIEQLFLRFARIGRDFYGQEQGRVGQPFWARRQGWPDMQALHVAADWSAVRVERRPVLRDGLVDEAEVVVTADQPLGVWHLQGVELAPAVRELQAGRPLEAVVSGLSGEQQRMVRRWLLEQGLV
notes: R47A is still to be applied; source: E. coli C41 (DE3), purified (Ni-Sepharose FF, HisTrap HP; His6-tag removed with TEV protease, second HisTrap HP); not shown: His6, N-terminal, cleaved
B4: QhpG R70A mutant (Pseudomonas putida) (enzyme)
chain: MAEPRIVVLGAGPAGAATAIGLRRLGYAVTVVSEWRRFAAVEGVSQRVLEGLRHVGLGGALRQAAMPATAQVHWNGQQLHLNQEFLLDRQRFDRALRDDLQRAGVSVVEGRVREVVRDVGHGIRLDDGQVLQADFLVEARGRQAPLAADRLRGPETVSLLNVWQAAPGAPASAVESLADGWAWMARLEDGRCYWQVTLDAAGLPGKAGLADYCAARRADSALVTELFDARALASAEVHARSSTAILAGECVGQDWIRVGDAAMAVDPLSGNGIFQSLSSALQAPVVINTLLRRPERAGLARQFHQQRIEQLFLRFARIGRDFYGQEQGRVGQPFWARRQGWPDMQALHVAADWSAVRVERRPVLRDGLVDEAEVVVTADQPLGVWHLQGVELAPAVRELQAGRPLEAVVSGLSGEQQRMVRRWLLEQGLV
notes: R70A is still to be applied; source: E. coli C41 (DE3), purified (Ni-Sepharose FF, HisTrap HP; His6-tag removed with TEV protease, second HisTrap HP); not shown: His6, N-terminal, cleaved
B5: QhpG R314A mutant (Pseudomonas putida) (enzyme)
chain: MAEPRIVVLGAGPAGAATAIGLRRLGYAVTVVSEWRRFAAVEGVSQRVLEGLRHVGLGGALRQAAMPATRQVHWNGQQLHLNQEFLLDRQRFDRALRDDLQRAGVSVVEGRVREVVRDVGHGIRLDDGQVLQADFLVEARGRQAPLAADRLRGPETVSLLNVWQAAPGAPASAVESLADGWAWMARLEDGRCYWQVTLDAAGLPGKAGLADYCAARRADSALVTELFDARALASAEVHARSSTAILAGECVGQDWIRVGDAAMAVDPLSGNGIFQSLSSALQAPVVINTLLRRPERAGLARQFHQQRIEQLFLAFARIGRDFYGQEQGRVGQPFWARRQGWPDMQALHVAADWSAVRVERRPVLRDGLVDEAEVVVTADQPLGVWHLQGVELAPAVRELQAGRPLEAVVSGLSGEQQRMVRRWLLEQGLV
notes: R314A is still to be applied; source: E. coli C41 (DE3), purified (Ni-Sepharose FF, HisTrap HP; His6-tag removed with TEV protease, second HisTrap HP); not shown: His6, N-terminal, cleaved
B6: QhpG W183F mutant (Pseudomonas putida) (enzyme)
chain: MAEPRIVVLGAGPAGAATAIGLRRLGYAVTVVSEWRRFAAVEGVSQRVLEGLRHVGLGGALRQAAMPATRQVHWNGQQLHLNQEFLLDRQRFDRALRDDLQRAGVSVVEGRVREVVRDVGHGIRLDDGQVLQADFLVEARGRQAPLAADRLRGPETVSLLNVWQAAPGAPASAVESLADGWAFMARLEDGRCYWQVTLDAAGLPGKAGLADYCAARRADSALVTELFDARALASAEVHARSSTAILAGECVGQDWIRVGDAAMAVDPLSGNGIFQSLSSALQAPVVINTLLRRPERAGLARQFHQQRIEQLFLRFARIGRDFYGQEQGRVGQPFWARRQGWPDMQALHVAADWSAVRVERRPVLRDGLVDEAEVVVTADQPLGVWHLQGVELAPAVRELQAGRPLEAVVSGLSGEQQRMVRRWLLEQGLV
notes: W183F is still to be applied; source: E. coli C41 (DE3), purified (Ni-Sepharose FF, HisTrap HP; His6-tag removed with TEV protease, second HisTrap HP); not shown: His6, N-terminal, cleaved

These molecules were tested against crosslinked QhpC (quinone-less QhpC of Ps. putida with three intra-peptidyl thioether bonds, the 28-residue leader peptide and a C-terminal Twin-Strep tag) (Pseudomonas putida IFO 15366 (NBRC 15366)) (assay: BLI; BLItz; QhpC immobilised through the St2-tag on streptavidin-coated biosensors, QhpG as analyte; 10 mM Tris-HCl, pH 7.4, 150 mM NaCl, 0.1% BSA, 0.02% Tween 20, 25 °C; global analysis). Details: not given.

Molecule	fold higher affinity (KD) than for linear QhpC [fold]
QhpG from Pseudomonas putida (flavoprotein monooxygenase, peptidyl tryptophan dihydroxylase), tag-less wild type (enzyme)	100

Biological target: T1, linear QhpC (nascent QhpC polypeptide with the 28-residue leader peptide and a C-terminal Twin-Strep tag, … (Pseudomonas putida IFO 15366 (NBRC …)))
T1 construct: also called QhpC-St2; source: E. coli C41 (DE3), co-expressed with His6-QhpD; QhpCD complex purified (HisTrap, Strep trap); QhpD removed by heat denaturation (60 °C, 20 min) before the QhpD-catalyzed reaction; not shown: Twin-Strep (St2), C-terminal, kept
T1 chain: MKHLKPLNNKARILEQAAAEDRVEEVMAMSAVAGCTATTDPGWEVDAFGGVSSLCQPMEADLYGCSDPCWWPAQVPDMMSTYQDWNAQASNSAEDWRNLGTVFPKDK
Experiment: BLI; BLItz system; linear or crosslinked QhpC immobilised through the St2-tag on streptavidin-coated biosensors; QhpG as analyte; 10 mM Tris-HCl pH 7.4, 150 mM NaCl, 0.1% BSA, 0.02% Tween 20; 25 °C; reference with a ligand-free biosensor; global analysis
Details: both partners purified

Molecule	Kd [nM]	koff [s⁻¹]	kon [M⁻¹ s⁻¹]
B1	2800 ± 22	0.16	59000

Biological target: T2, crosslinked QhpC (quinone-less QhpC with three intra-peptidyl thioether bonds, the 28-residue leader peptide … (Pseudomonas putida IFO 15366 (NBRC …, three intra-peptidyl Cys-to-Asp/Glu thioether bonds (Cys7-Glu16, Cys27-Asp33, Cys41-Asp49 as drawn in Supplementary Fig. 5); Cys37 and Trp43 free)
T2 construct: source: E. coli C41 (DE3), co-expressed with His6-QhpD; QhpCD complex purified (HisTrap, Strep trap); QhpD removed by heat denaturation (60 °C, 20 min) after the QhpD-catalyzed thioether bond formation; not shown: Twin-Strep (St2), C-terminal, kept
T2 chain: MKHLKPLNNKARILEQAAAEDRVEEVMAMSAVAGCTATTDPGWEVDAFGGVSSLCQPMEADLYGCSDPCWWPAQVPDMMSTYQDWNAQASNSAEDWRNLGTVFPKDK
Experiment: as above
Details: both partners purified

Molecule	Kd [nM]	koff [s⁻¹]	kon [M⁻¹ s⁻¹]
B1	28 ± 2.3	0.014	490000
B2	65 ± 8.1	0.011	170000
B3	1500 ± 490	0.023	15000
B4	48 ± 3.6	0.022	470000
B5	78 ± 28	0.011	140000
B6	37 ± 19	0.013	360000
